This note sets out measurements from the nanobody polyreactivity screen of Harvey et al. (2022).

This series is described as follows: yeast display, Sf9 membrane polyspecificity reagent, FACS + sequencing; frameworks hold sequencing errors. The essentials: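 In a synthetic yeast display library (Saccharomyces cerevisiae BJ5465), nanobody expression was induced with galactose for 36–48 hours. FACS gates were set low and high (top ~1%) using anti-HA fluorescence for expression and streptavidin fluorescence for binding of the Sf9 membrane reagent. Each polyreactivity label is drawn from the gate of origin.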
Take “QVQLVESGGGIVQAGGSLRLSCAASGGTFYYYAMGWYRQAPGKERELVATISYSGASTYYADSVKGRFTISRDNAKNTVYLQMNSLKPEDTAVYYCKARPYNHRYRAWMDYWGQGTQVTVSS”: the “polyreactivity (PSR sort gate)” value is given as “high polyreactivity”.
The entry for “QVQLVESGGGIVQAGGSLRLSCAASGIIFGYYAMGWYRQAPGKERELVAAISRRGGSTYYADSVKGRFTISRDNATITVYLQMHSLKPEDSAVSYCAAVELRLSTPDMESWVQGTQVTVSS” is “high polyreactivity”.
The entry for “QVQLVESGGGIVQAGGSLRLSCAASGIIFKAYAMGWYRKAPGKERELVAAITTGSTTYADSVKGRFTISRDNAKNTVYLQMNSLKPEDTAVYYCNARFDWGWPGYEYDYCGQGTQVTVSS” is “low polyreactivity”; for “QVQLVESGGGIVQAGGSLRLSCAASGIIFSWYAMGWYRQAPGKERELVAAISKGGGSTYYADSVKGRFTISRDNAKNTVYLQMNSLKPEDTAVYYCAAASSYGYGYWGQGTQVTVSS” it is “high polyreactivity”; for “QVQLVESGGGIVQAGGSLRLSCAASGITFEYNAIGWYRQAPGKARELVAAISQSSGSTYYADSVKGRFTISRDYAKNTVYLQMNSLKPEDTAVYYCNADTIIYEGGYWGQGTQVTVSS” it is “low polyreactivity”.
The entry for “QVQLVESGGGIVQAGGSLRLSCAASGLISRVYAMGWSRQAPGKEWELVAAISSGGSTNYADSVKGRFTISRDNAKNTVYLQMNSLKPEETAGYYCAARGRRTGGHYNYWGQGTQETVSS” is “low polyreactivity”; for “QVQLVESGGGIVQAGGSLRLSCAASGNTFGYYAIGWYRQAPGKERELVAAINFGGDTSYADSVKGRFTISRDNAKNTVYLQMNSLKPEDTAVYYCNRVPSWRIDYDYWGQGTQVTVSS” it is “low polyreactivity”; for “QVQLVESGGGIVQAGGSLRLSCAASGNTFYTYAMGWYRQAPGKERELVAAITSGGRTYADSVKGRFTISRDNATNTVYLQMNSLKPEDTAVYYCAADFPGFYYVYPGDYWGQGTQVTVSS” it is “low polyreactivity”.
On to “QVQLVESGGGIVQAGGSLRLSCAASGRIFGYYVMGWSRQAPGKESELVAAINYDGGSTYYADSVKGRFTISRDNAKNTVYLQMISLKPVDTAVYYWAAAIGNSEYGWRYDYWGQGTQVTVSS”, for which the “polyreactivity (PSR sort gate)” value is reported as “low polyreactivity”.
The entry for “QVQLVESGGGIVQAGGSLRLSCAASGRIFIWYDMGWYRQAPGKERELVAAITQSDDITYYADSVKGRFTISLDNAKNTVYLQMNSLKPEDTAVYYCAVDKPYPYRIIIWYEYDYWGQGTQVSVSS” is “low polyreactivity”.
The entry for “QVQLVESGGGIVQAGGSLRLSCAASGRIFPYYDMGWYRQAPGKERELVAAITSSGSTFYADSVKGRFTISRDNAKNTVYLQMNSLKPEDTAVYYCNTRDIRVRPYDYWGQGTQVTVSS” is “low polyreactivity”; for “QVQLVESGGGIVQAGGSLRLSCAASGRIFSGNAMGWYRQAPGKERELVATISRRGGSTYYADSVKGRFTISRDNAKNTVYLLMNSLKPEDTAVYYCAVDPYAWTKWSTYNYWGQGTQVTVSS” it is “high polyreactivity”.
In the case of “QVQLVESGGGIVQAGGSLRLSCAASGRIFVRNAMVWYRQAPGKERELVAAISTNGGSTRYADSVKGRFTISRDNAKNTVYLQMNSLKPEDTAVYYCNAYYSHSPRYLKYDYWGLGTQVTVSS” it was “high polyreactivity”; in that of “QVQLVESGGGIVQAGGSLRLSCAASGRIFYGYTMGWYRQAPGKERELVASIDYSTGRTYYADSVKGRFTISRDNAKNTVYLLMNSLKPEDTAVYYCNADPNYSFLRYDYWGQGTQVTVSS”, “high polyreactivity”; in that of “QVQLVESGGGIVQAGGSLRLSCAASGRIFYYYAMGWYRQAPGKESELVAAISRSGGRTYYADSVKGRFTISRDNAKNTVYLHMNSLKPEDTAVYYCNVVRQGGTLGYDYWGQGTQVTVSS”, “high polyreactivity”.
For the sequence “QVQLVESGGGIVQAGGSLRLSCAASGRISAYNAMGWYRQAPGKERELVAAITYDGGSTYYADSVKGRFTISRDNAKNTVYLHMNSLKPEDTAVYYCNAGADSVSFRDGGITTYDYWGQGTQVTVSS”, the “polyreactivity (PSR sort gate)” value is on record as “low polyreactivity”.
In the case of “QVQLVESGGGIVQAGGSLRLSCAASGRNFGPYTMGWYRQAPGKERELVATISYSGSTTYYSDSVKGRFTISRDNAKNTVYLQMNSLKPEDTAVYYCNAQYYVFITFDYWGQGTKVTVSS” it was “high polyreactivity”; in that of “QVQLVESGGGIVQAGGSLRLSCAASGRNFIHYAMGGYRQAPGKERELVAAISWGGGRTYYADSEKGRFTISRDNAKNTVYLQMNSLKPEDTAVYYCAAAGRGSGYDYWGQGTQVTVSS”, “high polyreactivity”; in that of “QVQLVESGGGIVQAGGSLRLSCAASGRTFDWYAMGWSRQAPGKERELVAAIDSIGGDTYYADSVKGRFTISRDNAKNTVYLQMNSLKPEDTAVYYCAALPWYDWEYEYWGQGTQVTVSS”, “high polyreactivity”.
The entry for “QVQLVESGGGIVQAGGSLRLSCAASGRTFFHYAMGWYRQAPGKERELVAGISSGGRTKYADSVKGRFTISRDNAKNTVYLQMNSLKPEDTAVYYCAASYIVWLTRGAPRKRFDYWGQGTQVTVSS” is “high polyreactivity”; for “QVQLVESGGGIVQAGGSLRLSCAASGRTFNYYAMGWYRQAPGKEREWVAAISSSGGRTYYADSVKGRFTISRDNAKNTVYLQMNSLKPEDTAVYYCAATGGGYKHWFDYWGQGTQVTVSS” it is “low polyreactivity”.
In the case of “QVQLVESGGGIVQAGGSLRLSCAASGRTFRKNAMAWYRQAPGKERELVAAISASGTSTNYADSVKGRFTISRDNAKNTVYLQMISLIPEDTSVYYCDARSYGIYDYWGQGTQVTVSS”, the “polyreactivity (PSR sort gate)” value was “high polyreactivity”.
The entry for “QVQLVESGGGIVQAGGSLRLSCAASGRTFSIYAMGWYRQAPGKERELVASITNSDGSTYYADSVKGRFTISRDNAKNTVYLQMNSLKPEDTAVYYCNDDSGISRVKYGYWGQATQVTVSS” is “low polyreactivity”.
The entry for “QVQLVESGGGIVQAGGSLRLSCAASGRTFTVYAMGWYRQARGTARELVAAINYSVGSTYYADSVKGRFTISRDNAKNTVYLQMNSLNPEDTAVYYCAADLYHFSYSNSYIRYDYWGQGTQVTVSS” is “low polyreactivity”; for “QVQLVESGGGIVQAGGSLRLSCAASGRTFWRNTMGWYRQAPGKETELVAAINKPGGSTYYADSVKGRFTISRDNAKNTVYLQMNSLKPEDTAVYYCNALTYQGRHSARYDYWGQGTQVTVSS” it is “high polyreactivity”; for “QVQLVESGGGIVQAGGSLRLSCAASGRTFYRNAMGWYRPAPGKERELFAVISLNGGRTYYADSVKGRFTISRDNAKNTVYLQMNSLKPEDTAVYYCNKLTGPVFTRGFYYWGQGTQVTVSS” it is “high polyreactivity”.
In the case of “QVQLVESGGGIVQAGGSLRLSCAASGRTYPGYAMGWYRQAPGKERELVATITFSDGSTYYADSVKGRFTISRDNAKNTVYLQMNSLKPVDTAVYYCNARRSYFLRYGVNYWGQGTQVTVSS” it was “low polyreactivity”.
Take “QVQLVESGGGIVQAGGSLRLSCAASGSIFGINAMGWNRQAPGKERELVAAITSRGGRTYYADSVKGRFTISRDNAKNTVYLQMNSLKPEDTAVYYCAAATPYLIRYYYWGQGTQVTVSS”: the “polyreactivity (PSR sort gate)” value is given as “high polyreactivity”.
In the case of “QVQLVESGGGIVQAGGSLRLSCAASGSIFGSYAMGWYRQAPGKERELVAAITRSGGRTYYADSVKGRFTISRDNAKNTVYLQMNSLKPEDTAVYYCNAKLKLPSGGDYWGQGTQVTVSS” it was “high polyreactivity”; in that of “QVQLVESGGGIVQAGGSLRLSCAASGSIFYVYAMGWYRQAPGKERELVAAIYSGASTYYADSVKGRFTISRDNAKNTVYLQMNSLKPEDTAVYYCAKRWRRRFVDVWSLYDYWGQGTQVTVSS”, “low polyreactivity”; in that of “QVQLVESGGGIVQAGGSLRLSCAASGSIIGPNTMGWYRQAPGKERELVAAIRGGGSTNYADSVKGRFTISRDNAKNTVYLQMNSLKPEDTAVYYCNATWNLFPGVLDRYDYWGQGTQVTVSS”, “low polyreactivity”.
Consider “QVQLVESGGGIVQAGGSLRLSCAASGSIINGNAMGWDRQAPGKERELVAAITRRGGSTYYADSVKGRFTISRDNAKNTVYLQMNSLKPEDTAVYYCAAEDWLYKRPYKERIVQFYYWGQGTQVTVSS”, for which the “polyreactivity (PSR sort gate)” value was “low polyreactivity”.
In the case of “QVQLVESGGGIVQAGGSLRLSCAASGSISAYYAMGWYRQAPGNERELVAAISWNGGRTYYADSVKGRFTISRDNAKNSVYLQMNSLKPEDTAVYYCAASPYYVVSTGGYDYDYWGQGTQVTVSS” it was “high polyreactivity”; in that of “QVQLVESGGGIVQAGGSLRLSCAASGSISSAYAMGWYRQAPGKERELVAVITSGGSTNYADSVKGRFTISRDNAKNTVYLQMNSLKQEDTAVYYCATPVASVTGYDYWGLGTQVTVSS”, “low polyreactivity”.
The entry for “QVQLVESGGGIVQAGGSLRLSCAASGSTFNANGMGWYRQAPGKERELVAAISWRGSTYYADSVKGRFTISRDNAKNTVYLQMNSLKPEDTAVYYCAAYRYSWSYQYRYGYWGQGTQVTVSS” is “high polyreactivity”; for “QVQLVESGGGIVQAGGSLRLSCAASGSTFRGNDMGWYRQAPGKERELVASIDWSGGSTYYADSVKGRFTISRDNAKNTVYLQMNSLKPEDTAVYYCAADTSYWYDYYIDYVGYYYWGQGTQVTVAS” it is “high polyreactivity”.
The entry for “QVQLVESGGGIVQAGGSLRLSCAASGSTFRGYAMGWYRQAPGKETELVAAITSRGTRTYYADSVKGRFTISRDNSKNTVSLQMNSLKPEDTAVYYCNVVSDIRLYYRYAYDYWGQGTQVTVSS” is “high polyreactivity”; for “QVQLVESGGGIVQAGGSLRLSCAASGSTLDDYVMGWYRHAPGKDRQLVAAISSSGSGTYYADSVKGRFTISRDNAKNTVYLQMNSLKQEDTAVYYCAAAYSYSGYGYYTYDYWGLGTQVTVSS” it is “low polyreactivity”; for “QVQLVESGGGIVQAGGSLRLSCAASGSTLQYNAMGWYRQAPGKERELVAAITRISGSTYYADSVKGRFTISRDNAKNTVYLQMNSLKPEHTAVYYCAAVSYYYSGYDYWGQGTEVTVSS” it is “high polyreactivity”.
In the case of “QVQLVESGGGIVQAGGSLRLSCAASGTFVYYAMVMYRQPPGKERELVAGISDGSSTNYADSVKGRFTISRDNAKNTVYLQMNSLKPEDTAVYYCAKRYYSSGREHGYWGQGTQVTVSS”, the “polyreactivity (PSR sort gate)” value is on record as “low polyreactivity”.
The entry for “QVQLVESGGGIVQAGGSLRLSCAASGTTIEYNAMGWYRQAPGKERELVASSTNYADSVKGRFTISRDNAKNTVYFQMNILKPEDTAVYYCAREQGVNRNHDYWGQGTQVTVSS” is “low polyreactivity”.
